Assay results reported in patent US20220306702.

B1: wild-type NleE (EPEC NleE) (protein)
chain: MINPVTNTQGVSPINTKYAEHVVKNIYPEIKHDYFNESPNIYDKKYISGITRGVAELKQEEFVNEKARRFSYMKTMYSVCPEAFEPISRNEASTPEGSWLTVISGKRPMGQFSVDSLYNPDLHALCELPDICCKIFPKENNDFLYIVVVYRNDSPLGEQRANRFIELYNIKRDIMQELNYELPELKAVKSEMIIAREMGEIFSYMPGEIDSYMKYINNKLSKIE
B2: NLeE from Shigella (Shigella NleE) (protein)
chain: GSMRKKRRQRRRSIEIKMISPIKNIKNVFPINTANTEYIVRNIYPRVEHGYFNESPNIYDKKYISGITRSMAQLKIEEFINEKSRRLNYMKTMYSPCPEDFQPISRDEASTPEGSWLTVISGKRPMGQFSVDSLYHPDLHALCELPEISCKIFPKENSDFLYIIVVFRNDSPQGELRANRFIELYDIKREIMQVLRDESPELKSIKSEIIIAREMGELFSYASEEIDSYIKQMNDRLSQIKARMPVTGSRS

Columns and labels:
[1] = target: 64 other human C4 ZF containing proteins
[2] = target: GST-TAB2 protein substrate [GST: P08515]

Protein	modification by NleE (cysteine methylation assay) [1]	methylase activity (MTase glo assay) [2]
B1	But few of them were modified by NleE	
B2		the Shigella NleE showed methylase activity at levels comparable to that seen for the EPEC NleE
